Consider 5 molecules from patent US20180244758A1 (MAPP BIOPHARMACEUTICAL, published 2018).

One assay concerns the target T1, MARV GP (Marburg virus (MARV), UniProt P35253 19-637).
T1 sequence: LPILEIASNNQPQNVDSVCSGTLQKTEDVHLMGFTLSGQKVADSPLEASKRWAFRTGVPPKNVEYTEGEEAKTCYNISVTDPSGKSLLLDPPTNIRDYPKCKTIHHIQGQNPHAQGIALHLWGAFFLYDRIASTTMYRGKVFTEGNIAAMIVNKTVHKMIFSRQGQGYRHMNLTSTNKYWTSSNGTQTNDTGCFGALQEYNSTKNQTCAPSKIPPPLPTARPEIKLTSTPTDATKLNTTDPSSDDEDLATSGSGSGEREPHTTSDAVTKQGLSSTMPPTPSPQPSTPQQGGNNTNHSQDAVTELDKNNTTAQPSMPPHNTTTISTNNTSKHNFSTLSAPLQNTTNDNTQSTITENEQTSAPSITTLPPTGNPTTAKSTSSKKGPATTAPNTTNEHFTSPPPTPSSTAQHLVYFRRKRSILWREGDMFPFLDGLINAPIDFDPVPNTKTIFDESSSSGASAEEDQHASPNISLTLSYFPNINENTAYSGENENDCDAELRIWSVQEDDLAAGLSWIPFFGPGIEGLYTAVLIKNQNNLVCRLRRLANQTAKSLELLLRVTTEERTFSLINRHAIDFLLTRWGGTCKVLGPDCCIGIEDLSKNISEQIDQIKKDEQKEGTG
The assay is described as follows: ELISA, GP antigen coated. (In general: ELISA stands for enzyme-linked immunosorbent assay.)

The next assay addresses T2, sGP (UniProt P60170 33-324).
T2 sequence: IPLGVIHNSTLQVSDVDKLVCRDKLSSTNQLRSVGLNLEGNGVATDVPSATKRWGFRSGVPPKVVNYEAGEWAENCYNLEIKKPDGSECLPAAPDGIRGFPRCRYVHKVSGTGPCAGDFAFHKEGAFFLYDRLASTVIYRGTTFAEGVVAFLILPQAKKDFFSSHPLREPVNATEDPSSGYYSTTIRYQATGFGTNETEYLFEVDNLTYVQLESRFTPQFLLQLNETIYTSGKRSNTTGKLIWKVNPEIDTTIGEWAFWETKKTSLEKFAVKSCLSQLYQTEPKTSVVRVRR
As to the kind of experiment: ELISA, GP antigen coated.

Assay [1] has as its target T3, SUDV GP on rVSV particles (Sudan virus (SUDV), UniProt Q66814 33-676).
T3 sequence: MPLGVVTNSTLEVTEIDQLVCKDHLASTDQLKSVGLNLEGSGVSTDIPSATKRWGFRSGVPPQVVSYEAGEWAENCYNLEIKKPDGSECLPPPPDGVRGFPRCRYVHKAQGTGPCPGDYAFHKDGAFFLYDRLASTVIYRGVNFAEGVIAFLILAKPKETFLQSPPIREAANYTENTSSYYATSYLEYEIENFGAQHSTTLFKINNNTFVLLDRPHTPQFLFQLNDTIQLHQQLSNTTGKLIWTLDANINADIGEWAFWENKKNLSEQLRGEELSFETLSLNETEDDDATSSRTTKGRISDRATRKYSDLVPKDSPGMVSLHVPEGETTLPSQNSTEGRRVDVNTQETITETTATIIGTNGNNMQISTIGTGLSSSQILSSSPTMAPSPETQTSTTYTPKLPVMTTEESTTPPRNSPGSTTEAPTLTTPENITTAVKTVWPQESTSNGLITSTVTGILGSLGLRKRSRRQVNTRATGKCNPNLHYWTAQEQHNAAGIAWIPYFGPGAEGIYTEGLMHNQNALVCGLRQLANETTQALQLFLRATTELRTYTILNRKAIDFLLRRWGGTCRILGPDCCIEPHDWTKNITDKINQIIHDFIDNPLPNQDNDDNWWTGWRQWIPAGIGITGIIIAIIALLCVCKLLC
As to the kind of experiment: cell-based or functional assay.

The target of assay [2] is BDBV GP on rVSV particles (Bundibugyo virus (BDBV)). As to the kind of experiment: cell-based or functional assay.
Assay [3] has as its target T4, RESTV GP on rVSV particles (Reston virus (RESTV), UniProt Q66799 34-677).
T4 sequence: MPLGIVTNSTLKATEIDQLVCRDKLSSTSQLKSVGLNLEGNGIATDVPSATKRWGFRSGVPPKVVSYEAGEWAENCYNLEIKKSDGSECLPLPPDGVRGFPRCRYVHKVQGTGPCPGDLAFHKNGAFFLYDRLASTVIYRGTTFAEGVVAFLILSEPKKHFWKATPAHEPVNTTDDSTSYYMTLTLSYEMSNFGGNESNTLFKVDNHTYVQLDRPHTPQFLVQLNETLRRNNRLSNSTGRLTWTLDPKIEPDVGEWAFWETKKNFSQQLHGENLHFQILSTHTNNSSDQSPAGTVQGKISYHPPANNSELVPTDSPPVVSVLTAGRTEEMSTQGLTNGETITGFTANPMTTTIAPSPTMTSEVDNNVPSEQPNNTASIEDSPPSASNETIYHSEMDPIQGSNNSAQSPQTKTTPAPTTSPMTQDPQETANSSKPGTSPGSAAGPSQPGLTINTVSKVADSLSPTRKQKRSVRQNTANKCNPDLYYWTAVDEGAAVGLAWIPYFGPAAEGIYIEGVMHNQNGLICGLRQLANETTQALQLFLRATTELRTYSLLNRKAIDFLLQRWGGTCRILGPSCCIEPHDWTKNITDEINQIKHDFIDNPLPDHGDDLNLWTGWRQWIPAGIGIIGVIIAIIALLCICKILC
As to the kind of experiment: cell-based or functional assay.

Assay [4] has as its target T5, TAFV GP on VSV pseudotype particles (Tai Forest virus (TAFV), UniProt Q66810 33-676).
T5 sequence: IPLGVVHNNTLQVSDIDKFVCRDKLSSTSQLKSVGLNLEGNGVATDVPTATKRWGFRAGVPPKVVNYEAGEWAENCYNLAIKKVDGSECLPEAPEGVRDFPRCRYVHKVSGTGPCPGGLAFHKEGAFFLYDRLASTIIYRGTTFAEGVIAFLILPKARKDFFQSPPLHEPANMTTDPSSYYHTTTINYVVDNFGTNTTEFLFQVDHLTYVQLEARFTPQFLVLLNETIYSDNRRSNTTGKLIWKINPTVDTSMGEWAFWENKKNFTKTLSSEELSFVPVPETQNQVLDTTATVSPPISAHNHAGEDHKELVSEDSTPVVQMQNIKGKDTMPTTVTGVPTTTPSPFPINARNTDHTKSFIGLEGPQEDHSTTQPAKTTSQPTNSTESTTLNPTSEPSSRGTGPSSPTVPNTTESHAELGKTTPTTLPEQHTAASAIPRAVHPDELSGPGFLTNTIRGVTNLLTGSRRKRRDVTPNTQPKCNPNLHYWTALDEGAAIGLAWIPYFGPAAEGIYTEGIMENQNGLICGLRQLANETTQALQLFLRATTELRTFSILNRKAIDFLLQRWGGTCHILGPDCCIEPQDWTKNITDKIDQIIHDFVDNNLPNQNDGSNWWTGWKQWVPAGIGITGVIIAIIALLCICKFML
As to the kind of experiment: cell-based or functional assay.

B1: mAb PE-47 (antibody, V domains shown)
VH: EVQLVESGGGLVKPGGSLRLSCAASGFTFSNAWMSWVRQAPGEGLEWVGRIKSKTDGGTIDYAAPVKGRFTISRDDSKNTVYLQMTSLKTEDTAVYYCTTYTEDMQYFDWLLRGGETFDYWGQGTLVTVSS
VL: DIQMTQSPSSLSASVGDRVTITCRASQYISTYLNWYQQKPGKAPKLLIYAAYNLQSGVPSRFSGSGSGTDFTLTISSLQPEDFATYYCQQSYSTPGRYTFGQGTKVEIK
On to B1, for which the binding result with MARV GP and with sGP was “no binding (tested: 0.2 µg/ml)” throughout.

B2: mAb PE-16 (antibody, V domains shown)
VH: QVQLVQSGAEVTKPGASVKVSCKASGYTFTTYYMHWVRQAPGQGLEWVGIINPSGGITRYAQKFQGRVTLTRDTSTTTVYMELSSLRSEDTAVYYCARDRYPVLFATDYGMDVWGQGTTVTVSS
VL: DIVMTQSPATLSLSPGERATLSCRASQSVSGYLAWYQQKPGQAPRLLIYDASNRATGIPARFSGSGSGTDFTLTISSLEPEDFAVYYCQQRSIWPPGVTFGGGTKVEIK
With B2, the binding result in the assay with MARV GP and in the assay with sGP was “no binding (tested: 0.2 µg/ml)” throughout.

B3: mAb PE-87 (antibody, V domains shown)
VH: QVQLVQSGVTLVQPGGSLRVSCAASGFTFSSYAMSWVRQAPGKGLEWVSAISGLGGSTYYADSVKGRFTISRDNSKNTLYLQMNSLRAEDTAVYYCAKDHRVWAAGYHFDYWGQGALVTVSS
VL: DIVLTQSPSTLSASVGDRVTITCRASQSISSWLAWYQQKPGEAPKLLISDASSLESGVPSRFSGSGSGTEFTLTISSLQPDDFATYYCQQYYSSPTFGGGTKVEIK
With B3, the “IC50 (nM), neutralization of rVSV-GP” value in assay [1] is 0.8 nM; in assay [2], 0.4 nM; in assay [3], 0.1 nM; in assay [4], 0.9 nM. Besides, the binding result with MARV GP and with sGP was “no binding (tested: 0.2 µg/ml)” each time.

B4: mAb PE-24 (antibody, V domains shown)
VH: EVQLVESGGGLVQPGGSLRLSCAASGFTFSSYAMSWVRQAPGKGLEWVSEISGLGGSTYYADSAKGRFTISRDNSKSTLYLQMNSLRAEDTAVYYCAKDHRVWAPGYYFDHWGQGTLVTVSS
VL: DIVLTQSPSTLSASVGDRVTITCRASQSISSWLAWYQQKPGKAPKLLIYDASSLESGVPSRFSGSGSGTEFTLTISSLQPDDFATYFCQQYNRSPTFGGGTKVEIK
Regarding B4, the binding result in the assay with MARV GP and with sGP was “no binding (tested: 0.2 µg/ml)” each time.

B5: mAb PE-05 (antibody, V domains shown)
VH: QVQLQESGGGLVKPGRSLRLSCTASGFTFGDYAMSWFRQAPGKGLEWVGFLRSKAYGGTAEYAASVKGRFTMSRDDSKSIAYLQMNSLKTEDTAVYFCTRDGFRGSSWGYSYYGMDVWGQGTTVTVSS
VL: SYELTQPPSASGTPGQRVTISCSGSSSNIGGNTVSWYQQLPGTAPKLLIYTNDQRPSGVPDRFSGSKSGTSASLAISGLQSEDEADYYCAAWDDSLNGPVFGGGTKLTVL
On to B5, for which, in the assay with MARV GP, the binding result is reported as “no binding (tested: 0.2 µg/ml)”.
